Measured values: US20260115250A1 (CHARACTER BIOSCIENCES, published 2026)

Legend:
[1] = biological target: T1, Low Density Lipoprotein Receptor (LDLR), recombinant (UniProt P01130 22-788, limits assumed); assay: SPR multi-cycle kinetics, immobilized LDLR, low-surfactant preparation (HBS-P), peptide:DMPC complex against peptide alone
T1 construct: also called Recombinant LDLR
Description: Recombinant LDLR was diluted in 10 mM acetate buffer pH 4.5 and amine coupled to a CM5 chip at 1000 RU. Peptides were diluted to 5 μM in running buffer (HBS-P, 1 mM CaCl2) and serially diluted 1:3 for 5 total concentrations. In a separate preparation, peptides were diluted to 1 μM in running buffer containing 25 μM DMPC and serially diluted 1:3 for 5 total concentrations in running buffer. Peptide: DMPC complexes were incubated for 1 hour prior to use. […] Between cycles, the chip surface was regenerated with 3 injections of 50 mM NaOH/100 mM EDTA. Multi-Cycle Kinetics was performed on a Biacore Insight Evaluation Software and binding kinetics were analyzed with a 1:1 binding model.

[2] = biological target: T1, Low Density Lipoprotein Receptor …; assay: SPR multi-cycle kinetics, immobilized LDLR, high surfactant preparation (HBS-P+), 1:1 model
Description: The table shown in FIG. 23 illustrates LDLR binding data (SPR), using a high surfactant preparation. Recombinant LDLR was diluted in 10 mM acetate buffer pH 4.5 and amine coupled to a CM5 chip at 1000 RU. Peptides were diluted to 5 μM in running buffer (HBS-P+, 1 mM CaCl2) and serially diluted 1:3 for 5 total concentrations. […] Between cycles, the chip surface was regenerated with 3 injections of 50 mM NaOH/100 mM EDTA. Multi-Cycle Kinetics was performed on a Biacore Insight Evaluation Software and binding kinetics were analyzed with a 1:1 binding model.

[3] = biological target: ATP binding cassette subfamily A member 1 (ABCA1), endogenous in ARPE-19 cells (human, UniProt O95477 1-2261); assay: cell-based or functional assay
Sequence of ATP binding cassette subfamily A member 1 (ABCA1), endogenous in ARPE-19 cells (O95477 whole entry): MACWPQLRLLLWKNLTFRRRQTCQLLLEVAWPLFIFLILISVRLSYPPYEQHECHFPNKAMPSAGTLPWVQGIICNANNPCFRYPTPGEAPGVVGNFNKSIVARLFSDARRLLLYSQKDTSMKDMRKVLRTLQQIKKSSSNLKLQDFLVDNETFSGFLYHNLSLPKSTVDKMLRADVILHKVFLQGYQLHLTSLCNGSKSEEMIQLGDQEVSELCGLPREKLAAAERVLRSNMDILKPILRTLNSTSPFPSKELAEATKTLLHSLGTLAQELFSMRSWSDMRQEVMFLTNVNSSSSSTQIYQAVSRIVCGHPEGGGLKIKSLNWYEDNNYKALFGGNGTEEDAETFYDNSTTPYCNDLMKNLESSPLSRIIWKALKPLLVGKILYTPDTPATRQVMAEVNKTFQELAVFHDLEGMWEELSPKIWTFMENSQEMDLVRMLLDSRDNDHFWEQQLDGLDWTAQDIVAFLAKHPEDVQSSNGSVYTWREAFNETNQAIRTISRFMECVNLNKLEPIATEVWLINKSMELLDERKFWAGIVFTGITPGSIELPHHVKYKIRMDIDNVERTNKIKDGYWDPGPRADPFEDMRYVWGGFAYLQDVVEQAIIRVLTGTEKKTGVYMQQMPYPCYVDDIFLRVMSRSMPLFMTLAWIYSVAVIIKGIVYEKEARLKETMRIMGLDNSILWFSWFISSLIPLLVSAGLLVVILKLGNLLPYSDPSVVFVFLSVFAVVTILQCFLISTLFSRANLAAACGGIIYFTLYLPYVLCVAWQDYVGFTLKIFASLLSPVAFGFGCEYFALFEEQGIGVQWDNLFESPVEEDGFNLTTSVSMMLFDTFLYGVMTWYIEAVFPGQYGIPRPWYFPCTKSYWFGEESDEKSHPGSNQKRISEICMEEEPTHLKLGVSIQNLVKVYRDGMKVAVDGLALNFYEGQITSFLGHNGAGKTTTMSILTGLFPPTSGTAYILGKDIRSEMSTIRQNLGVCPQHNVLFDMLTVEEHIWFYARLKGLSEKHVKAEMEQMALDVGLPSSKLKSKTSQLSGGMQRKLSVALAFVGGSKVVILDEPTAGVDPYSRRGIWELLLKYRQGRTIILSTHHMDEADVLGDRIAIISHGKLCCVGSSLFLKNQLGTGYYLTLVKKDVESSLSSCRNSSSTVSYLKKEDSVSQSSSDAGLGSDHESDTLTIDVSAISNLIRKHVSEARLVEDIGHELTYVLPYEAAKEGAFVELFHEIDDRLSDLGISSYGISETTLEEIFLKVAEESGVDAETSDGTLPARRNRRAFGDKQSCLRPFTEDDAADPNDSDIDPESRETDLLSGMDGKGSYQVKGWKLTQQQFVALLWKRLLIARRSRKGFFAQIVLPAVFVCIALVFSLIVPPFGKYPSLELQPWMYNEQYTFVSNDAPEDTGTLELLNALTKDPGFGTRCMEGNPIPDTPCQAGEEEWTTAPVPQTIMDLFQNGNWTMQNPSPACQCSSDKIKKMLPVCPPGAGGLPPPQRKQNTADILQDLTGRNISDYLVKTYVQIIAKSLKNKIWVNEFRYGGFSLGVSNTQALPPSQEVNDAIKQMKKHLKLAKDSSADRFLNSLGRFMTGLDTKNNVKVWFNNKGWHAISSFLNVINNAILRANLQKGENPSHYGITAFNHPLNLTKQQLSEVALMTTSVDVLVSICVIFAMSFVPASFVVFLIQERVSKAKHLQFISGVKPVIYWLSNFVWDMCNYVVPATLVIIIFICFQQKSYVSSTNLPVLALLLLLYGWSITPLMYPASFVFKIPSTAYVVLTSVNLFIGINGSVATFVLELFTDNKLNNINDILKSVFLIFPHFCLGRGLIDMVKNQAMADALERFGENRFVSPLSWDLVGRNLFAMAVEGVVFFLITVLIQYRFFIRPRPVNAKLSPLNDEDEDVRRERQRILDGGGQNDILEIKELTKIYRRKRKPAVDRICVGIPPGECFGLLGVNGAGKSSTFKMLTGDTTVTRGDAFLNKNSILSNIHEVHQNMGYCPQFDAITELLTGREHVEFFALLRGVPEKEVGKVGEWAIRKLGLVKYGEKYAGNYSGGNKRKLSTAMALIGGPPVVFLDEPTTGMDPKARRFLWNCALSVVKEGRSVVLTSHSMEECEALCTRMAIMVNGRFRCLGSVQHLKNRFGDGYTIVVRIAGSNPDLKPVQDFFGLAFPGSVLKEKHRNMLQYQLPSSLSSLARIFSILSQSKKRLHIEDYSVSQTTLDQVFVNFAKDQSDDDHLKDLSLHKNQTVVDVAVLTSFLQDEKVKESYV

[4] = biological target: ABCA1, endogenous in J774 murine macrophage cells (murine, UniProt P41233 1-2261); assay: cell-based or functional assay
Sequence of ABCA1, endogenous in J774 murine macrophage cells (P41233 whole entry): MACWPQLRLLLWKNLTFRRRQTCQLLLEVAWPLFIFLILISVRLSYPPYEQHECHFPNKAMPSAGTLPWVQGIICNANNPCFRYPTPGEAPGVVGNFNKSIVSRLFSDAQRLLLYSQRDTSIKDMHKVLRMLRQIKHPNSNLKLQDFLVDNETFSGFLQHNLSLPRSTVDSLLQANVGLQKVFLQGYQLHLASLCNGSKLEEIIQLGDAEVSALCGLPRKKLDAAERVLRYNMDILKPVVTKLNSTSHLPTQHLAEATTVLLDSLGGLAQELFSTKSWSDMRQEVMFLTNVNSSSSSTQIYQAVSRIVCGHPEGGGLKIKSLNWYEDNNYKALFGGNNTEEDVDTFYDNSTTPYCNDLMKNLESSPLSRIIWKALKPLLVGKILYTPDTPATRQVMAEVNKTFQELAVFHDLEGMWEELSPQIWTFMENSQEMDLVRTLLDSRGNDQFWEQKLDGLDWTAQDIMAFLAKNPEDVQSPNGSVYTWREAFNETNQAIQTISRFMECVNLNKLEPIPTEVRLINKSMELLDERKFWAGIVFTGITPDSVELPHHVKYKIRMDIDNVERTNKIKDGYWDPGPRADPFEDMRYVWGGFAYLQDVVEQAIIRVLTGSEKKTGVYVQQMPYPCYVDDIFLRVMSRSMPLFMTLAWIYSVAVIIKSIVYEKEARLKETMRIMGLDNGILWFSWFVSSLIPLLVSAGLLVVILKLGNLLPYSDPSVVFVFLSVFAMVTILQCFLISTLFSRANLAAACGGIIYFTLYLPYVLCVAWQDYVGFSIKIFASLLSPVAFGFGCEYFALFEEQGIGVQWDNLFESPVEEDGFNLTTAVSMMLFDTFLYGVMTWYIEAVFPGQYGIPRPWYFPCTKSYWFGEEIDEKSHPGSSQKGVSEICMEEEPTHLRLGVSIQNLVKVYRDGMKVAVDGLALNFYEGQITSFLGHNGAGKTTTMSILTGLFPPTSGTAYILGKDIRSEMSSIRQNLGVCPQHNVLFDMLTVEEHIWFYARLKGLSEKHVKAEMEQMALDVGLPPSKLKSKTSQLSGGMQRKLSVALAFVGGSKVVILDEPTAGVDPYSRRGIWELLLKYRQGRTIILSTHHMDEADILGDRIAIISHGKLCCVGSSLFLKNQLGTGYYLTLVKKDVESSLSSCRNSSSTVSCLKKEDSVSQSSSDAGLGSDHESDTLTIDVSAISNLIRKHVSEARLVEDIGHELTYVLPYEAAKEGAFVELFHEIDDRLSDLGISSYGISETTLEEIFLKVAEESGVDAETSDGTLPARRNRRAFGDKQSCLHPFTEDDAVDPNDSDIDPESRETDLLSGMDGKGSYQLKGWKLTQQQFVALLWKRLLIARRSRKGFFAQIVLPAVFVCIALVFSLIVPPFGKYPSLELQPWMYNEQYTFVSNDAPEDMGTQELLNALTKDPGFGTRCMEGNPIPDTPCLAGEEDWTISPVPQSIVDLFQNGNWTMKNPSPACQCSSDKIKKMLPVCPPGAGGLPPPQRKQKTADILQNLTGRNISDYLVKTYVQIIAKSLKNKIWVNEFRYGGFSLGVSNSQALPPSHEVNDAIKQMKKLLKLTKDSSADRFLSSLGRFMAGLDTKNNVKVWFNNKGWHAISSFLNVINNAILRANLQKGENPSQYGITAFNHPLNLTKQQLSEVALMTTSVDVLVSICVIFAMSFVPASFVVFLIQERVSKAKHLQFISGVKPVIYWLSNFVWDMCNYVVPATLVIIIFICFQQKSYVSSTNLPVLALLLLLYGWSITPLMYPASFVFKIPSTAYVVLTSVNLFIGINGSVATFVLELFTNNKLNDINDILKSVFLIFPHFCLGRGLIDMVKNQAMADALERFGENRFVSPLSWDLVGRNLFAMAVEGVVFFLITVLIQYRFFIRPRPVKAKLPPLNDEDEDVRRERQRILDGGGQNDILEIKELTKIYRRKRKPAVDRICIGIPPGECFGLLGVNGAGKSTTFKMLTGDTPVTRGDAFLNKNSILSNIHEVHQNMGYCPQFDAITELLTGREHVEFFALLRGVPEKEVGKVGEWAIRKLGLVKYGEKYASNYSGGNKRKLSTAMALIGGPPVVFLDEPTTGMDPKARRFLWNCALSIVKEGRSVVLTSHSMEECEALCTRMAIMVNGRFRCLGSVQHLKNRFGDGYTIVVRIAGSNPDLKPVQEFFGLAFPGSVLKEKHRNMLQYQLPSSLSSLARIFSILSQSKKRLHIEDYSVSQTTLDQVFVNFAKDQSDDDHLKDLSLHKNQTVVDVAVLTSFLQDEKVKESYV

Binder	change in LDLR binding in the presence of DMPC lipid [1]	Kd [2]	EC50, membrane ABCA1 stability in ARPE-19 cells treated with mCRP (western blot) [3]	EC50, membrane ABCA1 stability in J774 cells (western blot of membrane ABCA1 after 8-Br-cAMP washout) [4]
T-117 (peptide) peptide: RSGADALESALKELKRFIREWTLGQSTEELRVRLASHLRKLRKRLLRDADDLQKRLAVYQA	> 2 fold	–	–	–
LVQYRGEVQAMLGQSTEELRVRLASHLRKLRKRLLRDADDLQKRLAVYQA [T-070]	> 2 fold	–	–	–
LASHLRKLRKRLLRDADDLQKRLAVYQAGAREGAER [T-046]	–	< 10 µM	–	–
DAWERFRALFKELADYFR [T-087]	–	–	4.6 µM	1.51 µM
T-113 (peptide) peptide: WKDFGERVERALREQFEDLGQSTEELRVRLASHLRKLRKRLLRDADDLQKRLAVYQA	> 2 fold	< 10 µM	–	–
LASHLRKLRKRLLRSLVSQYFQTVTDYGKDLM [T-065]	> 2 fold	< 10 µM	–	–
HLRKLRKRLLRDGDKLQDRLAEYQARAKEAFDR [T-040]	–	< 10 µM	–	–
HLRKLRKRLLRDGDKLQDRLAEYQARAREAFDR [T-055]	–	< 10 µM	–	–
HLRKLVKRLFRDGDKLQDRLAEYQARAKEAFDR [T-059]	–	< 10 µM	–	–
HLRKLRKRLLRDADDLQKRLAEYQARAKEAFDR [T-064]	–	< 10 µM	–	–
HLRKLRKRLLRDGDKLQKRLAEYQARAKEAFDR [T-052]	–	< 10 µM	–	–
HLRKLRKRLLRSLVSQYRQTVTDYGKDL [T-110]	> 2 fold	< 10 µM	–	–
HLRKLRKRLLRSLVSQYFQTVTDYGKDL [T-109]	> 2 fold	< 10 µM	–	–
RSGADALESALKELKRFIREWT [T-101]	–	–	3.5 µM	3.7 µM
LASHLRKLRKRLLRDGDKLQDRLAEYQARAKEAFDR [T-048]	–	< 10 µM	–	–

The remaining lines, values ahead:

change in LDLR binding in the presence of DMPC lipid [1]	Kd [2]	EC50, membrane ABCA1 stability in ARPE-19 cells treated with mCRP (western blot) [3]	EC50, membrane ABCA1 stability in J774 cells (western blot of membrane ABCA1 after 8-Br-cAMP washout) [4]	Binder
–	< 10 µM	–	–	T-069 (peptide) peptide: VRGRLVQYRGEVQAMLGQSTEELRVRLASHLRKLRKRLLRDADDLQKRLAVYQA
> 2 fold	< 10 µM	–	–	T-116 (peptide) peptide: DAWERFRALFKELADYFRLGQSTEELRVRLASHLRKLRKRLLRDADDLQKRLAVYQA
–	< 10 µM	–	–	LARHLRKLRKRLARDADDLQKRLAVYQAGAREGAER [T-047]
> 2 fold	< 10 µM	–	–	T-112 (peptide) peptide: YKDFGERVERALGRQLEMLGQSTEELRVRLASHLRKLRKRLLRDADDLQKRLAVYQA
> 2 fold	< 10 µM	–	–	T-114 (peptide) peptide: LKDFGERVARALREQFEDLGQSTEELRVRLASHLRKLRKRLLRDADDLQKRLAVYQA
> 2 fold	< 10 µM	–	–	T-115 (peptide) peptide: DHINKVQRKVTHEIERLFLGQSTEELRVRLASHLRKLRKRLLRDADDLQKRLAVYQA
> 2 fold	< 10 µM	–	–	LARHLRKLRKRLARSLVSQYFQTVTDYGKDLM [T-066]
–	< 10 µM	–	–	HLRRLRRRLLRDGDKLQDRLAEYQARAKEAFDR [T-041]
–	< 10 µM	–	–	HLRKLRKRLLRDGDKLYDRLAEYYARAKEAFDR [T-062]
> 2 fold	< 10 µM	–	–	HLRKLVKRLLRSLVSQYRQTVTDYGEDL [T-111]
> 2 fold	< 10 µM	–	–	T-068 (peptide) peptide: MEDVRGRLVQYRGEVQAMLGQSTEELRVRLASHLRKLRKRLLRDADDLQKRLAVYQA
–	< 10 µM	–	–	LARHLRKLRKRLARDGDKLQDRLAEYQARAKEAFDR [T-049]
